Reference: the supplement of paper PMC9112550, “Optimization of the antimicrobial peptide Bac7 by deep mutational scanning” (BMC Biology, 2022)

What follows are sequences tested on Escherichia coli TOP10 (assay: shrunken log2 fold change of peptide-encoding DNA abundance (4.5 h post-induction vs induction); higher = less antimicrobial activity (less host growth inhibition)). Conditions: time post-induction: 4.5 h; library: site-saturation at positions 5, 18, 19, 20.
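Note: peptides expressed intracellularly from a pBAD plasmid library in pooled LB shake-flask culture, induced with 0.3% L-arabinose, DNA abundance read by NGS, three biological replicates, DESeq2 with apeglm shrinkage.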

Q: RRIRKRPPRLPRPRPRPFVSPRP was tested. Which “shrunken log2 fold change” value did it give?
A: -0.176

Q: For RRIRKRPPRLPRPRPRPRRPPRP, which “shrunken log2 fold change” value is on record?
A: 0.544

Q: For RRIRVRPPRLPRPRPRPVGGPRP, which “shrunken log2 fold change” value is on record?
A: 0.306

Q: With RRIRTRPPRLPRPRPRPPSMPRP as the sequence, how does the “shrunken log2 fold change” value read?
A: 0.13

Q: RRIRNRPPRLPRPRPRPRRVPRP was tested. Which “shrunken log2 fold change” value did it give?
A: 0.551

Q: How did the “shrunken log2 fold change” value turn out when RRIRVRPPRLPRPRPRPEPWPRP was run?
A: 0.128

Q: Which “shrunken log2 fold change” value does the source give for RRIRMRPPRLPRPRPRPEHQPRP here?
A: 0.0185

Q: How did the “shrunken log2 fold change” value turn out when RRIRSRPPRLPRPRPRPMGTPRP was run?
A: 0.194

Q: For RRIRSRPPRLPRPRPRPKQCPRP, which “shrunken log2 fold change” value is on record?
A: 0.14

Q: With RRIRWRPPRLPRPRPRPPYVPRP as the sequence, how does the “shrunken log2 fold change” value read?
A: -0.284

Q: For RRIRGRPPRLPRPRPRPVSNPRP, which “shrunken log2 fold change” value is on record?
A: 0.568

Q: How did the “shrunken log2 fold change” value turn out when RRIRWRPPRLPRPRPRPQYYPRP was run?
A: -0.0952

Q: Which “shrunken log2 fold change” value does the source give for RRIRGRPPRLPRPRPRPKSAPRP here?
A: 0.781

Q: Which “shrunken log2 fold change” value does the source give for RRIRDRPPRLPRPRPRPQCMPRP here?
A: -0.0894

Q: With RRIRERPPRLPRPRPRPAQYPRP as the sequence, how does the “shrunken log2 fold change” value read?
A: 0.0972

Q: Which “shrunken log2 fold change” value does the source give for RRIRSRPPRLPRPRPRPSMLPRP here?
A: -0.3

Q: Which “shrunken log2 fold change” value does the source give for RRIRQRPPRLPRPRPRPKFQPRP here?
A: 0.022

Q: Which “shrunken log2 fold change” value does the source give for RRIRVRPPRLPRPRPRPNRVPRP here?
A: 0.0523

Q: How did the “shrunken log2 fold change” value turn out when RRIRFRPPRLPRPRPRPSSSPRP was run?
A: -0.625

Q: Which “shrunken log2 fold change” value does the source give for RRIRHRPPRLPRPRPRPMLWPRP here?
A: 0.0253

Q: RRIRMRPPRLPRPRPRPTRLPRP was tested. Which “shrunken log2 fold change” value did it give?
A: 1.19

Q: With RRIRMRPPRLPRPRPRPALTPRP as the sequence, how does the “shrunken log2 fold change” value read?
A: 0.433

Q: With RRIRNRPPRLPRPRPRPGAWPRP as the sequence, how does the “shrunken log2 fold change” value read?
A: 0.0927

Q: With RRIRCRPPRLPRPRPRPLCFPRP as the sequence, how does the “shrunken log2 fold change” value read?
A: -0.0241

Q: RRIRMRPPRLPRPRPRPEDTPRP was tested. Which “shrunken log2 fold change” value did it give?
A: 1.94

Q: With RRIRKRPPRLPRPRPRPKFIPRP as the sequence, how does the “shrunken log2 fold change” value read?
A: -1.04

Q: Which “shrunken log2 fold change” value does the source give for RRIRFRPPRLPRPRPRPMFPPRP here?
A: -0.368

Q: RRIRNRPPRLPRPRPRPLLAPRP was tested. Which “shrunken log2 fold change” value did it give?
A: 0.253

Q: How did the “shrunken log2 fold change” value turn out when RRIRNRPPRLPRPRPRPWNKPRP was run?
A: -0.184

Q: For RRIRRRPPRLPRPRPRPCWNPRP, which “shrunken log2 fold change” value is on record?
A: -0.00252

Q: With RRIRLRPPRLPRPRPRPKVYPRP as the sequence, how does the “shrunken log2 fold change” value read?
A: -0.0494

Q: How did the “shrunken log2 fold change” value turn out when RRIRRRPPRLPRPRPRPWWSPRP was run?
A: 0.105

Q: With RRIRMRPPRLPRPRPRPLSCPRP as the sequence, how does the “shrunken log2 fold change” value read?
A: 0.163

Q: Which “shrunken log2 fold change” value does the source give for RRIRIRPPRLPRPRPRPTHMPRP here?
A: 0.578

Q: How did the “shrunken log2 fold change” value turn out when RRIRIRPPRLPRPRPRPGNPPRP was run?
A: -0.366

Q: How did the “shrunken log2 fold change” value turn out when RRIRKRPPRLPRPRPRPTFFPRP was run?
A: 0.368

Q: Which “shrunken log2 fold change” value does the source give for RRIRMRPPRLPRPRPRPILHPRP here?
A: -0.378

Q: How did the “shrunken log2 fold change” value turn out when RRIRRRPPRLPRPRPRPLMSPRP was run?
A: -0.246

Q: RRIRKRPPRLPRPRPRPVVPPRP was tested. Which “shrunken log2 fold change” value did it give?
A: -0.093

Q: How did the “shrunken log2 fold change” value turn out when RRIRTRPPRLPRPRPRPMRGPRP was run?
A: -0.0594

Q: RRIRRRPPRLPRPRPRPWCCPRP was tested. Which “shrunken log2 fold change” value did it give?
A: -0.0571

Q: Which “shrunken log2 fold change” value does the source give for RRIRERPPRLPRPRPRPMLFPRP here?
A: -0.0835

Q: With RRIRVRPPRLPRPRPRPTSTPRP as the sequence, how does the “shrunken log2 fold change” value read?
A: -0.103

Q: Which “shrunken log2 fold change” value does the source give for RRIRGRPPRLPRPRPRPVWRPRP here?
A: 1.21

Q: Which “shrunken log2 fold change” value does the source give for RRIRVRPPRLPRPRPRPESFPRP here?
A: -0.0103

Q: RRIRRRPPRLPRPRPRPLNQPRP was tested. Which “shrunken log2 fold change” value did it give?
A: 0.0755

Q: How did the “shrunken log2 fold change” value turn out when RRIRVRPPRLPRPRPRPSDMPRP was run?
A: -0.519

Q: With RRIRKRPPRLPRPRPRPYRGPRP as the sequence, how does the “shrunken log2 fold change” value read?
A: -0.231

Q: Which “shrunken log2 fold change” value does the source give for RRIRARPPRLPRPRPRPIHYPRP here?
A: -0.241

Q: How did the “shrunken log2 fold change” value turn out when RRIRDRPPRLPRPRPRPQVHPRP was run?
A: -0.0385

Q: Which “shrunken log2 fold change” value does the source give for RRIRYRPPRLPRPRPRPMMAPRP here?
A: -0.146

Q: RRIRVRPPRLPRPRPRPHPMPRP was tested. Which “shrunken log2 fold change” value did it give?
A: -0.15

Q: With RRIRTRPPRLPRPRPRPQTNPRP as the sequence, how does the “shrunken log2 fold change” value read?
A: -0.199

Q: How did the “shrunken log2 fold change” value turn out when RRIRGRPPRLPRPRPRPLECPRP was run?
A: 0.447

Q: RRIRQRPPRLPRPRPRPSQAPRP was tested. Which “shrunken log2 fold change” value did it give?
A: 0.103

Q: How did the “shrunken log2 fold change” value turn out when RRIRFRPPRLPRPRPRPEAFPRP was run?
A: 1.82

Q: How did the “shrunken log2 fold change” value turn out when RRIRKRPPRLPRPRPRPGANPRP was run?
A: 0.179

Q: How did the “shrunken log2 fold change” value turn out when RRIRWRPPRLPRPRPRPHGRPRP was run?
A: 0.0589

Q: How did the “shrunken log2 fold change” value turn out when RRIRFRPPRLPRPRPRPSNGPRP was run?
A: -0.238

Q: RRIRQRPPRLPRPRPRPMMLPRP was tested. Which “shrunken log2 fold change” value did it give?
A: 0.052

Q: For RRIRARPPRLPRPRPRPMADPRP, which “shrunken log2 fold change” value is on record?
A: 0.357

Q: With RRIRCRPPRLPRPRPRPDKCPRP as the sequence, how does the “shrunken log2 fold change” value read?
A: -0.325

Q: RRIRARPPRLPRPRPRPNHLPRP was tested. Which “shrunken log2 fold change” value did it give?
A: -0.000432

Q: RRIRLRPPRLPRPRPRPPMSPRP was tested. Which “shrunken log2 fold change” value did it give?
A: 0.0743

Q: Which “shrunken log2 fold change” value does the source give for RRIRMRPPRLPRPRPRPLNCPRP here?
A: -0.158

Q: How did the “shrunken log2 fold change” value turn out when RRIRTRPPRLPRPRPRPQKPPRP was run?
A: -0.0591

Q: Which “shrunken log2 fold change” value does the source give for RRIRIRPPRLPRPRPRPSPKPRP here?
A: -0.178

Q: With RRIRFRPPRLPRPRPRPFEYPRP as the sequence, how does the “shrunken log2 fold change” value read?
A: -0.281

Q: Which “shrunken log2 fold change” value does the source give for RRIRMRPPRLPRPRPRPMTSPRP here?
A: 0.157

Q: For RRIRVRPPRLPRPRPRPKPWPRP, which “shrunken log2 fold change” value is on record?
A: 0.376

Q: For RRIRCRPPRLPRPRPRPNSMPRP, which “shrunken log2 fold change” value is on record?
A: -0.745

Q: With RRIRIRPPRLPRPRPRPVHTPRP as the sequence, how does the “shrunken log2 fold change” value read?
A: -0.4

Q: Which “shrunken log2 fold change” value does the source give for RRIRNRPPRLPRPRPRPILAPRP here?
A: -0.264

Q: For RRIRERPPRLPRPRPRPSCGPRP, which “shrunken log2 fold change” value is on record?
A: 0.0151

Q: How did the “shrunken log2 fold change” value turn out when RRIRTRPPRLPRPRPRPIAVPRP was run?
A: -0.213
